According to paper PMC9254107, “The Toxoplasma glucan phosphatase TgLaforin utilizes a distinct functional mechanism that can be exploited by therapeutic inhibitors” (The Journal of Biological Chemistry, 2022):

B1: TgLaforin (Toxoplasma gondii ME49) (protein)
chain: MRVRFSVTAFVPPNAQLGVVGSAPFLGEWKLEHCVPLMPYSAPHPQGLEPSLWFRDIDLDPASCPNDTNDVHSTAAVSASCSADRRRCDLSRQSPHCFPSARSASPYMVEVSRGDCPFAVELMSTSQHVLSEFSKHNSPVYSAGEQRFRRSLPSSASFSSCTSSGSAVAATKCVWDAAAYRVATRAPEVQAVLESHPLRHCAFEYKFVLWYPPNGEIAVPYVPTTAGEEVPITYAGDSEVLNEESEGGARRRSWRKWLFPPSPSRCPAPPGPSESIVWEGFGPDSNRKFCFDPFDVVVDVNELGDLECLYICRIAHFRDPRAGGVGEYDLTTRFYNSVKSECRMHYSTIFPRFFVGSCPRQLKHIRHLKEELKVTCVVNLQTEQDLCNNYPDPIASSRSAEAVSQLYDGSGLRYVWLPTADMCDSARKIAVANAAFLLLGLFQSGHSVYMHCNAGVGRSVAAACAFLCFAVGLDLRKVNFLICARRPVAYWDEKAMKYGIGDYQAKFGHCRVVGEEAEERQHA
B2: VHR (Vaccinia H1-related phosphatase) (Homo sapiens) (protein)
chain: MSGSFELSVQDLNDLLSDGSGCYSLPSQPCNEVTPRIYVGNASVAQDIPKLQKLGITHVLNAAEGRSFMHVNTNANFYKDSGITYLGIKANDTQEFNLSAYFERAADFIDQALAQKNGRVLVHCREGYSRSPTLVIAYLMMRQKMDVKSALSIVRQNREIGPNDGFLAQLCQLNDRLAKEGKLKP

Substrate: O=[N+]([O-])c1ccc(OP(=O)(O)O)cc1
Assay: purified protein, by the assay type

Protein	Km (other: pH 5.5, 37 °C) [µM]	Vmax (other: pH 5.5, 37 °C) [nmol PO4/min]	Km (pH 5.5, 37.0 °C) [µM]
B1	1000 ± 50	1.4 ± 0.02	–
B2	–	–	2500 ± 100
